Source: the supplement of paper PMC9170038

Test system: MS2 coat protein
Assay: apparent KD of MS2 coat protein; designed switch direction (-1 OFF switch, 1 ON switch): 1; higher = weaker reporter binding
In short: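 Designed RNA switches were transcribed on Illumina chips by stalled E. coli RNA polymerase and titrated with SNAP-549-labelled MS2 coat protein from 0.7 or 1.5 nM, doubling to 3 µM. Step length ran from 0.8–1.5 h at the lowest concentration to 10–20 min at the highest. The apparent KD is the median over clusters for each design, from curve-fitted normalised cluster fluorescence.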

[1] = input ligand: microRNA oligo, concentration not stated
[2] = Eterna round: R95, input ligand: FMN 200 uM
[3] = Eterna round: R95, input ligand: microRNA oligo, concentration not stated
[4] = Eterna round: R95, input ligand: none

Row | Sequence | apparent KD of MS2 coat protein (input ligand: FMN 200 uM) [nM] | apparent KD of MS2 coat protein [1] [nM] | apparent KD of MS2 coat protein (input ligand: none) [nM] | apparent KD of MS2 coat protein [2] [nM] | apparent KD of MS2 coat protein [3] [nM] | apparent KD of MS2 coat protein [4] [nM]
1 | GGCGAAGGAGAAGGAUAUAUCUUGGACAUAUAGAUGCACAUGAGGAUCACCCAUGUCAUCAUGGGAUAGAAGGUCUGCUUCACC [Eternabot solution 33] (Eterna round: R96, puzzle: Same State NG 2) | 13.2 | 10.3 | 14.2 |  |  | 
2 | GGCGGAUCCACAUGAGGAUCACCCAUGUAGCGGAGACGCAAUGAGGAUAUCGAUGGGUUUCCCGUCGAGAAGGCAUAAACCGCC [JL SSNG3 3.93 mod 2] (Eterna round: R96, puzzle: Same State NG 3) | 17.8 | 14.9 | 16 |  |  | 
3 | GGCGGCCUGGGAGGAUAUCGGGCCCUUUGGGCCCGAGAAGGUCCGGAGCCUCUGACAUGAGGAUCACCCAUGUAGGCUGCUGCC [first try] (Eterna round: R96, puzzle: Same State NG 1) | 45.4 | 186 | 154 |  |  | 
4 | GGCGUAUAAACAUGAGGAUCACCCAUGUAGCGGAGACGCAAUGAGGAUAUCGAUGGGUUUCCCGUCGAGAAGGCGUGGGUCGCC [JL SSNG3 3.94] (Eterna round: R96, puzzle: Same State NG 3) | 20.6 | 20.6 | 29 |  |  | 
5 | GGCUAUCGCGUACGAUAGCUGAAGCAUGUACAUGAGGAUCACCCAUGUCAUGUACAAGCUUUUUGCUCGUCUUAUUG [JL-shm-2.32 JL mod] (puzzle: Sensor for hsa-mir-208a) |  |  |  | 243 | 13.9 | 348
6 | GGCUAUCGCGUACGAUAGCUUAAGCGUGUACAUGAGGAUCACCCAUGUCAUGUACAAGCUUUUUGCUCGUCUUAUUG [JL-shm-2.34 JL mod] (puzzle: Sensor for hsa-mir-208a) |  |  |  | 195 | 19.4 | 493
7 | GGGAGAGACGGAGGAUAUGGAGGGAGAUAGAGACUAGAAGGUUGGACAUGAGAAUCGAACAUGAGGAUCACCCAUGUUGGGAGG [iteri-2] (Eterna round: R96, puzzle: Same State NG 1) | 61.5 | 33.7 | 56.7 |  |  | 
8 | GGGAGAGGCGCAGGAUAUGGUGAGGAUCACCCACUAGAAGGGUGCACAUGAGAAUCGAACAUGAGGAUCACCCAUGUUCUGAGC (Eterna round: R96, puzzle: Same State NG 1) | 560 | 162 | 348 |  |  | 
9 | GGGAGAGGUACAGGAUAUGGUGAGGAUCACCCACUAGAAGGGUGCACAUGUGAAUCGGACAUGAGGAUCACCCAUGUUUGGCGU (Eterna round: R96, puzzle: Same State NG 1) | 86.7 | 74.8 | 133 |  |  | 
10 | GGGCCACAUGAGGAUCACCCAUGUGGAGCUAGUGCACGGUCACAGGAUAUCUCGUGGGCGUAUAGGGAGAAGGGUGAUUCAUUA [Eternabot solution 18] (Eterna round: R96, puzzle: Same State NG 3) | 47.2 | 51.3 | 52.3 |  |  | 
11 | GGUAAGAAUUAAGGAUAUCGAGUACAUAUGUUUAACAUGAGGAUCACCCAUGUGGGUUGCGGUAUCGAGAAGGUAAAAUAAAAG [Mat - same State NG 2 - JL mod - D65] (Eterna round: R96, puzzle: Same State NG 2) | 53 | 29.2 | 36.2 |  |  | 
12 | GGUAAGAAUUAAGGAUAUCGAGUACAUAUGUUUAACAUGAGGAUCACCCAUGUGGGUUGCGGUAUCGAGAAGGUAAAUUACAAG [Mat - same State NG 2 - JL mod - D62] (Eterna round: R96, puzzle: Same State NG 2) | 40.7 | 35.7 | 41.8 |  |  | 
13 | GGUAGGUUACUACCAAACAACAUGAGGAUCACCCAUGUGUGGAAGGAUAUGGUACCUAUUUGGUACCAGAAGGUCCAAUUAAUU [Fiskers NG3ss - 4] (Eterna round: R96, puzzle: Same State NG 3) | 72.3 | 36.4 | 63.1 |  |  | 
14 | GGUAGGUUACUACCAAACAUGAGGAUCACCCAUGUUAAUGGGAAGGAUAUGGUACCUAUUUGGUACCAGAAGGUCCAAUUAAUU [JL Fiskers NG3ss - 2 mod 4] (Eterna round: R96, puzzle: Same State NG 3) | 70.4 | 520 | 493 |  |  | 
15 | GGUAGGUUACUACCAAACUACAUGAGGAUCACCCAUGUGUGGAAGGAUAUGGUACCUAUUUGGUACCAGAAGGUCCAAUUAAUU [Fiskers NG3ss - 5] (Eterna round: R96, puzzle: Same State NG 3) | 125 | 108 | 122 |  |  | 
16 | GGUAGGUUACUACCAGACAUGAGGAUCACCCAUGUAAAUGGGAAGGAUAUGGUACCGUUUCGGUACCAGAAGGUCCUAAAUGAG [JL SSNG3 1.47] (Eterna round: R96, puzzle: Same State NG 3) | 301 | 644 | 1750 |  |  | 
17 | GGUCAGACUCACAUGAGGAUCACCCAUGUACCGGAAACGGCACAGGAUAUCUGUCCGAAAAGGUCAGAGAAGGGUGUACUGACC [Fiskers NG3ss - 53] (Eterna round: R96, puzzle: Same State NG 3) | 277 | 22.9 | 82 |  |  | 
18 | GGUCCAGCCUGAGCUGGACAAAAGCAUGUACAUGAGGAUCACCCAUGUCAUGUACAAGCUUUUUGCUCGUCAGAAAG [Mat - hsa-mir-208a - 98] (puzzle: Sensor for hsa-mir-208a) |  |  |  | 62.7 | 16.9 | 89.8
19 | GGUCCAGCCUGAGCUGGACAAAAGCAUGUACAUGAGGAUCACCCAUGUCAUGUACAAGCUUUUUGCUCGUCAUAAUU [Mat - hsa-mir-208a - 100] (puzzle: Sensor for hsa-mir-208a) |  |  |  | 495 | 16 | 489
20 | GGUCCAGCCUGAGCUGGACAAAAGCAUGUACAUGAGGAUCACCCAUGUCAUGUACAGGCUUUUUGCUCGUCUUAAAA [JL mod - D87 - 7] (puzzle: Sensor for hsa-mir-208a) |  |  |  | 622 | 16.1 | 825
21 | GGUCCAGCCUGAGCUGGACAAAAGCAUGUACAUGAGGAUCACCCAUGUCAUGUGCAAGCUUUUUGCUCGUCUUAAAA [JL mod - D87 - 4] (puzzle: Sensor for hsa-mir-208a) |  |  |  | 67.3 | 11 | 73.4
22 | GGUCCAGCCUGAGCUGGACAAAAGCAUGUACAUGAGGAUCACCCAUGUUCAUGUACAAGCUUUUUGCUCGUCUUAGA [salish99_208a_r3_068] (puzzle: Sensor for hsa-mir-208a) |  |  |  | 629 | 15.5 | 747
23 | GGUCCAGCCUGAGCUGGACAAAAGCAUGUACAUGAGGAUCACCCAUGUUCAUGUACAAGCUUUUUGCUCGUCUUAGU [salish99_208a_r3_069] (puzzle: Sensor for hsa-mir-208a) |  |  |  | 536 | 16.3 | 730
24 | GGUCCAGCCUGAGCUGGACGAUAGUAUGUACAUGAGGAUCACCCAUGUCAUGUAUAAGUAUUUUGUUUGUCUUGAAA [Sensorship 3 - Jieux - Sensor for hsa-mir-208a] (puzzle: Sensor for hsa-mir-208a) |  |  |  | 22.1 | 14.7 | 19.3
25 | GGUCCAGCCUGAGCUGGACUACAGCAUGUACAUGAGGAUCACCCAUGUCAUGUACAAGUAUGUUGUUUGUCUUAAAA [Sensorship 7 - Jieux - Sensor for hsa-mir-208a] (puzzle: Sensor for hsa-mir-208a) |  |  |  | 80.8 | 37.5 | 108
26 | GGUCCAGCCUGAGCUGGACUACAGCAUGUACAUGAGGAUCACCCAUGUCAUGUACAUGCUUUUUGUUUGUCUUAAAA [Sensorship 10 - Jieux - Sensor for hsa-mir-208a] (puzzle: Sensor for hsa-mir-208a) |  |  |  | 20.2 | 38.8 | 24.6
27 | GGUCCAUCAUGAGGAUAUGGCACCUUAUUGGUGCCAGAAGGCAUGUAAAUUAUAAUAAAUACAUGAGGAUCACCCAUGUGGACC [Eli NG1ss - 98] (Eterna round: R96, puzzle: Same State NG 1) | 1230 | 80.2 | 407 |  |  | 
28 | GGUCCGGCCUGAGCUGGACCGAGGCAUGUACAUGAGGAUCACCCAUGUUCAUGUGCAGGCUUUUUGCUCGUCUUGUG [JL-shm-2.06 JL mod] (puzzle: Sensor for hsa-mir-208a) |  |  |  | 49.6 | 11 | 50.6
29 | GGUCGAAACCACAUGAGGAUCACCCAUGUUCCGGAAACGGCGCAGGAUAUCUGUCCGAAAAGGUCAGAGAAGGGUGAAACGACC [Fiskers NG3ss - 79] (Eterna round: R96, puzzle: Same State NG 3) | 546 | 699 | 944 |  |  | 
30 | GGUCGGACAUGAGGAUCACCCAUGUGGUGACCGGAAACGGCAUAGGAUAUCUGUCCGAAAAGGUCAGAGAAGGGUGAACCGACC [Fiskers NG3ss - 69] (Eterna round: R96, puzzle: Same State NG 3) | 160 | 15.5 | 126 |  |  | 
